In publication PMC6971037, “Molecular basis for histidine N3-specific methylation of actin H73 by SETD3” (Cell Discovery, 2020):

T1: SETD3 residues 20–494 (as labelled for the ITC titrations) (human, UniProt Q86TU7 20-494)
T1 construct: also called SETD3_(20–494)
T1 sequence (looked up): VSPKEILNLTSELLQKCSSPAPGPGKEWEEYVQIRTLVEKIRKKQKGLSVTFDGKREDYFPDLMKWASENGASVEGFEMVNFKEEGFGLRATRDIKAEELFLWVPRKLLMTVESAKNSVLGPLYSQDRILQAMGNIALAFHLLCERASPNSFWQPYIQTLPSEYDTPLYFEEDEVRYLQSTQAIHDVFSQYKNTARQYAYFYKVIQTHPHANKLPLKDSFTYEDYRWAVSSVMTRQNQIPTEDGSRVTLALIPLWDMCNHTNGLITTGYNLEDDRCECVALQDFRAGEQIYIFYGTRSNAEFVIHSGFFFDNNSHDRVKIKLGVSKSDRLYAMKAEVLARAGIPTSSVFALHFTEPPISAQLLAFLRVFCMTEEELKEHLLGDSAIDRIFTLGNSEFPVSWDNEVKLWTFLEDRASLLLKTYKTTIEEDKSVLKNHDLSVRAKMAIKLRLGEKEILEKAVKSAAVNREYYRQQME

B1: β-actin peptide (60–81) (peptide, UniProt P60709 60-81, looked up)
peptide: SKRGILTLKYPIEHGIVTNWDD
notes: β-actin, residues 60-81; residues 66-81 were built in the structure; also called wild-type actin peptide
B2: H73A mutant actin peptide (peptide, UniProt P60709 60-81, looked up)
peptide: SKRGILTLKYPIEAGIVTNWDD
notes: β-actin peptide with H73A; The limits 60-81 are those of the wild-type peptide; also called H73A actin peptide; H73A mutant peptide

How the values were obtained:
[1] = molecular target: T1, SETD3 residues 20–494 (as labelled for …); assay: ITC; SETD3 titrated with actin peptide in the presence of SFG (sinefungin); conditions: both partners purified
[2] = molecular target: T1, SETD3 residues 20–494 (as labelled for …); assay: ITC; SETD3 titrated with actin peptide in the presence of SAH; conditions: both partners purified

Row | Binder | Kd [1] | Kd [2]
1 | B1 | 5010 nM | 150 nM
2 | B2 | 1000 nM | 810 nM
